Results taken from patent publication US9012606B2, “In vivo half life increased fusion protein or peptide maintained by sustained in vivo release, and method for increasng in vivo half-life using same” (Alteogen, Inc., priority 2009, dated 2015).

Columns and labels:
[1] = system: rat lymphoma cell line (NB2 cell); assay: In vitro activity in NB2 cells (MTS method); type: cell-based; settings: 48 hrs
Experimental: The rat lymphoma cell line (NB2 cell) was maintained in RPMI1640 supplemented with 10% HS (Horse serum), 10% FBS, 2-mercaptoethanol and antibiotics at 37° C. under a 5% CO2 condition. For 24 hrs before experiment, NB2 cells were incubated in RPMI 1640 supplemented with 10% HS. Thereafter, the NB2 cells were washed once with 1×DPBS (Dulbecco's Phosphate Buffered Saline), and plated at a density of 2×10^4 cells/100 μL/well in 5% HS-supplemented RPMI 1640 in 96-well plates (Corning, U.S.A.) with final volume of 100 μL. A series of concentrations of the samples were added in an amount of 20 μL to each well of the 96-well plates, followed by incubation at 37° C. for 48 hrs under a 5% CO2 condition. Subsequently, 20 μL of an MTS solution (Promega, U.S.A.) was added to each well of the 96-well plates and allowed to react at 37° C. for 3 hrs under a 5% CO2 condition. The reaction was terminated by adding 20 μL of 10% SDS (sodium dodecyl sulfate) to each well. Absorbance was measured at 490 nm using a VersaMax microplate reader (Molecular Device, U.S.A.).

[2] = Pharmacokinetics of hGH and hGH/alpha-1 antitrypsin fusions (serum ELISA); type: in vivo; settings: Sprague-Dawley rats, subcutaneous, 720 μg/kg
Experimental: An anti-human growth hormone monoclonal antibody (Medix Biochemica, Finland) was diluted to a concentration of 1-5 μg/mL in phosphate buffered saline (PBS) and the dilution was aliquoted in an amount of 100 μL/well onto a 96-well plate (Nunc, Denmark) and incubated at room temperature for 15-18 hrs. After the antibody remaining suspended was removed, PBS containing 1% bovine serum albumin was plated in an amount of 250 μL/well and incubated at room temperature for 2 hours. The plates were washed three times with wash buffer (0.05% Tween 20, PBS) and the solution was aspirated. Samples were diluted in PBS containing 1% bovine serum albumin and added to the 96-well plates before incubation at room temperature for 2 hrs. The 96-well plates were washed five times with wash buffer and 100 μL of the human growth hormone monoclonal antibody-biotin conjugate prepared using sulfo-NHS-biotin (Pierce biotechnology, U.S.A.) was added to each well of the 96-well plates and then incubated at room temperature for 2 hrs. The plates were washed five times with wash buffer and incubated with streptabidin-HRP at room temperature for 30 min. Again, the plates were washed five times with wash buffer and reacted with 100 μL of a mixture of TMB (3,3′,5,5′-tetramethylbenzidine) and hydrogen peroxide per well for 30 min in a dark place. To each well was added 100 μL of 1 M sulfuric acid to terminate the reaction, followed by measuring absorbance at 450 nm on a VersaMax microplate reader (Molecular Device, U.S.A.). Values for each sample were calculated by regression analysis after a standard curve was plotted for a reference material.
Sprague-Dawley rats were used as experimental animals and three of them were administered with human growth hormone while five rats were assigned to each of the fusion-administered groups. The human growth hormone/alpha-1 antitrypsin fusion [T109wt: α1AT/hGH], the human growth hormone/alpha-1 antitrypsin monovariant fusion [T109: α1AT(P357N)/hGH], and the human growth hormone/alpha-1 antitrypsin divariant fusion [T109T: α1AT(P357N, S359T)/hGH], all prepared in Examples 1-3, were subcutaneously injected at a dose of 720 μg/kg into respective groups of Sprague-Dawley rats. The samples were diluted in PBS before injection. Blood samples were taken at 0, 1, 2, 4, 8, 12, 16, 24, 30 and 48 hrs after the injection, and centrifuged to obtain sera. For a control, Scitropin (SciGen, Singapore), a kind of human growth hormone, was subcutaneously injected at a dose of 200 μg/kg. PBS was used as a diluent. Blood samples were taken at 0, 0.33, 1, 2, 5, 8, 12, 18, 24, 30 and 48 hrs after the injection, and centrifuged to obtain sera. Each sample was analyzed in the same manner as the enzyme immunoassay of Test Example 1.

trypsin = target: T1, trypsin (Bos taurus, UniProt P00760); assay: Inhibitory activity against trypsin; type: biochemical; settings: trypsin and fusion 10 nM each, 1 hr room temperature
T1 construct: gene PRSS1
T1 sequence (P00760 24-246): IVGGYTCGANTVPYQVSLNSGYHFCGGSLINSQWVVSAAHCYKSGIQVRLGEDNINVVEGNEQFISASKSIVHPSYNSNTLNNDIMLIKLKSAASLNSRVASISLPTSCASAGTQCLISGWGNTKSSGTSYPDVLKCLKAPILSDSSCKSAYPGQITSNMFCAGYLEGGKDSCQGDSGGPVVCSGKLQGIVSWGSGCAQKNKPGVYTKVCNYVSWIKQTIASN
Experimental: (§1) The human growth hormone/alpha-1 antitrypsin fusion [T109wt: α1AT/hGH] prepared in Example 1 and the human growth hormone/alpha-1 antitrypsin monovariant fusion [T109: α1AT(P357N)/hGH] prepared in Example 1 were separately mixed with trypsin. Trypsin and the fusions were used at a concentration of 10 nM, respectively. After being incubated at room temperature for 1 hr, the mixture was reacted with 0.2 mM of the substrate N-Benzoyl-Val-Gly-Arg p-nitroanilide hydrochloride (Sigma, U.S.A.), followed by measuring absorbance at 405 nm. Trypsin unit was set to be the concentration of substrate causing a change in absorbance of 0.001 and the enzyme activity was expressed as units/mg trypsin. For comparison, trypsin was used as a control.

[3] = target: T2, human neutrophil elastase (Homo sapiens, UniProt P08246); assay: Inhibitory activity against human neutrophil elastase; type: biochemical; settings: elastase and fusion 40 nM each, 1 hr room temperature
T2 sequence (P08246 30-267): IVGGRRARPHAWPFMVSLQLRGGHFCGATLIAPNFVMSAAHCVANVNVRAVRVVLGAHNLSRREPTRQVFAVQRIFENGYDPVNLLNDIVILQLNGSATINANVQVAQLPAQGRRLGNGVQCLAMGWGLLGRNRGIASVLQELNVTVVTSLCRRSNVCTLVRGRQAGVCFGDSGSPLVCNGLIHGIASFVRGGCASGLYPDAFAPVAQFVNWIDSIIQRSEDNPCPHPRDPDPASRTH
Experimental: as §1, with “with human neutrophil elastase. The elastase” for “with trypsin. Trypsin”, “of 40” for “of 10”, “with 1” for “with 0.2”, “substrate MeOSuc-AAPV-pNA (Santa Cruz Biotechnology, Inc.,” for “substrate N-Benzoyl-Val-Gly-Arg p-nitroanilide hydrochloride (Sigma,”, “nm. Human neutrophil elastase” for “nm. Trypsin”, “units/mg elastase.” for “units/mg trypsin. For comparison, trypsin was used as a control.”

human growth hormone/alpha-1 antitrypsin fusion [T109wt]
EC50 [1]: 0.212 nM
serum half-life (t1/2) [2]: 5.3 h
time to peak serum concentration (Tmax) [2]: 8 h
Ka (association equilibrium constant) with trypsin (trypsin): about 7.5×10^8 M^−1
inhibition of human neutrophil elastase [3]: ~100%
